Target: the molecule itself
Assay: Western blot, homodimer formation

B1: K3 NGAL mutant protein (ligand)
chain: QDSTSDLIPAPPLSSVPLQQNFQDNQFQGKWYVVGLAGNAILREDEDPQKMYATIYELKEDKSYNVTSVLFRDDGCDYWIRTFVPGCQPGEFTLGNIQSYPGLTSYLVRVVSTNYNQFAMVFFKKVSQNQEYFKITLYGRTKELTSELQENFIRFSKSLGLPENNIVFPVPIDQCIDG
notes: Mutant of human NGAL; Expressed in bacteria like the wild type and labelled with Alexa 568 in the uptake assays; also called K3 Scn-Ngal; Mut1
Question: Does B1 bind?
Answer: binds

— patent publication US12173037 (TRUSTEES OF COLUMBIA UNIVERSITY IN THE CITY OF NEW YORK, dated 2024)
